Experimental data as given in article PMC5137418 (Nucleic Acids Research, 2016).

Molecular target: His-RNMT (human, UniProt O43148 1-476)
Assay: pull-down; 2 μg GST or GST-RAM with equimolar His-RNMT and glutathione sepharose; 50 mM Tris–Cl pH 7.5, 250 mM NaCl, 0.03% Brij-35, 1 mM DTT, 4°C, 1 h; Coomassie stain
Details: both partners purified

His-RNMT, sequence (O43148 whole entry): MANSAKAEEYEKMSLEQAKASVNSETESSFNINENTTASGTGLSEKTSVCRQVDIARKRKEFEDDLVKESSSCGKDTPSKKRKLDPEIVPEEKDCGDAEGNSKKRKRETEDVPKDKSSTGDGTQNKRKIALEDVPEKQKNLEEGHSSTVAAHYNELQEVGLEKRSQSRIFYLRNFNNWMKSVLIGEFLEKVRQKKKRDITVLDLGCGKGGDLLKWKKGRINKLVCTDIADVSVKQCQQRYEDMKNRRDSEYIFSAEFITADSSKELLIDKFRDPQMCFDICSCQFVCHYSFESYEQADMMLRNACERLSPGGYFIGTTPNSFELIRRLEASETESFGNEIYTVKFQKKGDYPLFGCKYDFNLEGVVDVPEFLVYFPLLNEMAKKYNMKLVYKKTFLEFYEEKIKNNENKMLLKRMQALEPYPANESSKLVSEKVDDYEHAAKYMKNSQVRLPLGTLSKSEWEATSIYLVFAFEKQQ

binding result: binds
B1: GST-RAM 2–45 (domain or fragment, human, UniProt Q9BTL3 2-45, looked up)
chain: TDTAEAVPKFEEMFASRFTENDKEYQEYLKRPPESPPIVEEWNS
